Experimental data: patent US20120251571, “RNASE L-MEDIATED CLEAVAGE PRODUCTS AND USES […]” (The Cleveland Clinic Foundation, published 2012)

Key:
Flag-RIG-I [1] = target: T1, Flag-RIG-I (Homo sapiens, UniProt O95786 O95786:1-925); assay: pulldown; one clone; settings: tags: FLAG, from 293T cells
T1 sequence: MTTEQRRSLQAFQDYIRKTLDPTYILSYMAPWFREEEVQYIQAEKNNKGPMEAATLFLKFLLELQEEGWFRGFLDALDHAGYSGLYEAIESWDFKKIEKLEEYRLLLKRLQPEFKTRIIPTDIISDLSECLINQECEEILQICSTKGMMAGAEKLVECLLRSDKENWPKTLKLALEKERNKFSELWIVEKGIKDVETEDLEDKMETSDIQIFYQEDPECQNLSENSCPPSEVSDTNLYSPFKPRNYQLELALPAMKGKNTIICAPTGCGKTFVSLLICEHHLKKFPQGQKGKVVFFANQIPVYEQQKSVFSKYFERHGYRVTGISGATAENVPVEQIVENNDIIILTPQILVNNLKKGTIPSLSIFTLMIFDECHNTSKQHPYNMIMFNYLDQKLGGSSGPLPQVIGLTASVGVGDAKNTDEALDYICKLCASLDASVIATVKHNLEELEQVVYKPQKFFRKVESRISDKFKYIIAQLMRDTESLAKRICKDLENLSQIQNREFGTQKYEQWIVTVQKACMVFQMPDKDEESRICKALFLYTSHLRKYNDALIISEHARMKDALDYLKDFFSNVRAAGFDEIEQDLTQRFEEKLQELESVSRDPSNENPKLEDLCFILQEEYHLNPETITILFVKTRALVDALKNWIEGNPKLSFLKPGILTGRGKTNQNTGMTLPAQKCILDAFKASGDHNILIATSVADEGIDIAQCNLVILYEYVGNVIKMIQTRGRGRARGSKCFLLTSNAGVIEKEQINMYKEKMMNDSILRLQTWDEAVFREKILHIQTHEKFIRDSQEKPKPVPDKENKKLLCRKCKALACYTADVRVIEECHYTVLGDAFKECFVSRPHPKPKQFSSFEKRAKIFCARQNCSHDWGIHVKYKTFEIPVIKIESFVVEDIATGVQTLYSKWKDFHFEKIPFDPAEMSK

Flag-RIG-I [2] = target: T1, Flag-RIG-I; assay: pulldown; two clones; settings: tags: FLAG, from 293T cells
RIG-I full-length [3] = target: T2, RIG-I full-length (Homo sapiens, UniProt O95786 O95786:1-925); assay: EMSA; stable complex; 1.5 mM MgCl2, 37 C; settings: tags: recombinant full-length (Saito et al. 2007, 2008); broken stem-loop with 5' and 3' ss overhangs
T2 sequence: T1 sequence

[4] = target: T3, N-RIG (RIG-I N-terminal polypeptide) (UniProt O95786 O95786:1-228); assay: EMSA; N-terminal polypeptide control; settings: broken stem-loop with 5' and 3' ss overhangs
T3 sequence: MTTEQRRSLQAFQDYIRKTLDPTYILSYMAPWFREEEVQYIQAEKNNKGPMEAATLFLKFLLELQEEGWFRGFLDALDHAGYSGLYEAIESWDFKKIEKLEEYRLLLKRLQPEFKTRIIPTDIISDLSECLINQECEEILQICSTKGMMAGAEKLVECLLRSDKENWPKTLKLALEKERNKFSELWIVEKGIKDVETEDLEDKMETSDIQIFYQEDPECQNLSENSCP

Flag-RIG-I [5] = target: T1, Flag-RIG-I; assay: pulldown; eight clones; settings: tags: FLAG, from 293T cells; broken stem-loop with 5' and 3' ss overhangs
RIG-I full-length [6] = target: T2, RIG-I full-length; assay: EMSA; stable complex; 10 pmol protein, 6 pmol RNA, 20 mM Tris pH 8.0, 1.5 mM MgCl2, 37 C; settings: tags: recombinant full-length (Saito et al. 2007, 2008); broken stem-loop with 5' and 3' ss overhangs
Flag-RIG-I [7] = target: T1, Flag-RIG-I; assay: pulldown; six clones isolated; partial clones of the full fragment; settings: tags: FLAG, from 293T cells
Flag-RIG-I [8] = target: T1, Flag-RIG-I; assay: pulldown; three clones; settings: tags: FLAG, from 293T cells

B1: svRNA10 (ssRNA)
RNA: ACCUGGUCACGAGGCACGCCGAUGUCAUUCCCGUGCGCCGGCGAGGUGAUAGCAGGGGUAGCCUGCUUUCGCCCCGGCCCAUUUCCUACUUGAAAGGCUCCUCGGGGGGUCCGCUGUUGUGCCCCGCGGGACACGCCGUGGGCCUAUUCAGGGCCGCGGUGUGCACCCGUGGAGUGGCU
binding result (Flag-RIG-I [1]): binds

B2: svRNA6 (ssRNA)
RNA: ACGGGUCAUCGCAUGGCAUGGGAUAUGAUGAUGAACUGGUCCCCUACGGCAGCGUUGGUGGUAGCUCAGCUGCUCCGGAUCCCACAAGCCAUCAUGGACAUGAUCGCUGGUGCUCACUGGGGAGUCCUGGCGGGCAUAGCGU
binding result (Flag-RIG-I [2]): binds

B3: svRNA3 (5'-OH/3'-p) (ssRNA)
RNA: AAGAACAAAGCUCAAACUCACUCCAAUAGCGGCCGCUGGCCGGCUGGACUUGUCCGGUUGGUUCACGGCUGGCUACAGCGGGGGAGACAU
modifications: 5'-OH, 3'-phosphate
binding result (RIG-I full-length [3]): binds | binding result [4]: no binding | binding result (Flag-RIG-I [5]): binds

B4: svRNA5 (ssRNA)
RNA: ACCUUCUCUCCCAGGCGCCACUGGACGACGCAAGACUGCAAU
binding result (Flag-RIG-I [1]): binds

B5: svRNA14 (ssRNA)
RNA: CCCGUGACCCUACAACCCCCCUCGCGAGAGCCGCGUGGGAGACAGCAAGACACACUCCAGUCAAUUCCUGGCUAGGCAACAU
binding result (Flag-RIG-I [1]): binds

B6: svRNA15 (ssRNA)
RNA: B5 RNA
binding result (Flag-RIG-I [2]): binds

B7: svRNA7 (ssRNA)
RNA: GGUCUCCUUACACCAGGCGCCAAGCAGAACAUCCAACUGAUCAACACCAACGGCAGUUGGCACAUCAAUAGCACGGCCUUGAAUUGCAAUGAAAGCCUUAACACCGGCUGGUUAGCAGGGCUCUUCUAUCAACACAAAUUCAACUCUUCAGGCUGUCCUGAGAGGUUGGCCAGCUGCCGACGCCUUACCGAUUUUGCCCAGGGCUGGGGUCCUA
binding result (Flag-RIG-I [2]): binds

B8: svRNA11 (ssRNA)
RNA: ACAGACUGGGCGCUGUUCAGAAUGAAGUCACCCUGACGCACCCAAUCACCAAAUACAUCAUGACAUGCAUGUCGGCCGACCUGGAGAUCGUCACGAGCACCUGGGUGCUCGUUGGCGGCGUCCUGGCUGCUCUGGCCGCGUAUUGCCUGUCAACAGGCUGCGUGGUCAUAGUGGGCAGGAUU
binding result (Flag-RIG-I [1]): binds

B9: svRNA12 (ssRNA)
RNA: UGCACCGCCAACCAUGACUCCCCUGACGCCGAGCUCAUAGAGGCUAACCUCCUGUGGAGGCAGGAGAUGGGCGGCAACAUCACCAGGGUUGAGUCAGAGAACAAAGUGGUGAUUCUGGACUCCUUCGAUCCGCUUGUGGCAGAGGAGGAUGAGCGGGAGGUCUCCGUACCUGCAGAAAUUCUGCGGAAGUCUCGGAGAUUCGCCCGGGCCCUGCCCGUCUGGGCGCGGCCGGACUACAACCCCCCGCUA
binding result (Flag-RIG-I [2]): binds

B10: svRNA3 (5'-p3/3'-OH) (ssRNA)
RNA: AAGAACAAAGCUCAAACUCACUCCAAUAGCGGCCGCUGGCCGGCUGGACUUGUCCGGUUGGUUCACGGCUGGCUACAGCGGGGGAGACAUUUA
modifications: 5'-triphosphate, 3'-OH
binding result (RIG-I full-length [6]): binds | binding result [4]: no binding

B11: svRNA1 (ssRNA)
RNA: UGUCCACCGGCCUCAUCCACCUCCACCAGAACAUU
binding result (Flag-RIG-I [7]): binds

B12: svRNA8 (ssRNA)
RNA: GCUUGGGCCAGCCGACGGAAUGGUCUCCAAGGGGUGGAGGUUGCUGGCGCCCAUCACGGCGUACGCCCAGCAGACGAGAGGCCUCCUAGGGUGUAUA
binding result (Flag-RIG-I [1]): binds

B13: svRNA9 (ssRNA)
RNA: B12 RNA
binding result (Flag-RIG-I [1]): binds

B14: svRNA2 (ssRNA)
RNA: UGUUGCUGCAACGCUGGGCUUUGGUGCUU
binding result (Flag-RIG-I [8]): binds

B15: svRNA13 (ssRNA)
RNA: CCACCUCCACGGUCCCCUCCUGUGCCUCCGCCUCGGAAAAAGCGUACGGUGGUCCUCACCGAAUCAACCCUA
binding result (Flag-RIG-I [1]): binds
